Results on two molecules are retold here after article PMC6509284, “Aurora B-INCENP Localization at Centromeres/Inner Kinetochores Is Required for Chromosome Bi-orientation in Budding Yeast” (Current Biology, 2019).

In the assay the target is T1, recombinant COMA (Ctf19-Okp1-Mcm21-Ame1) inner kinetochore sub-complex (budding yeast (S. cerevisiae), UniProt P53298 1-406; P38313 1-324; Q02732 1-369; Q06675 1-368).
T1 construct: Okp1, budding yeast, essential COMA component; His-Okp1 printed as 49 kDa; Ame1, budding yeast, essential COMA component; printed as 37 kDa; Ctf19, budding yeast, non-essential COMA component; 'coding regions' cloned; printed as 43 kDa; Mcm21, budding yeast, non-essential COMA component; also called COMA components; source: E. coli RosettaGami2(DE3)pLysS, four subunits co-expressed, purified …
T1 sequence (P53298 whole entry, chain 1 of 4): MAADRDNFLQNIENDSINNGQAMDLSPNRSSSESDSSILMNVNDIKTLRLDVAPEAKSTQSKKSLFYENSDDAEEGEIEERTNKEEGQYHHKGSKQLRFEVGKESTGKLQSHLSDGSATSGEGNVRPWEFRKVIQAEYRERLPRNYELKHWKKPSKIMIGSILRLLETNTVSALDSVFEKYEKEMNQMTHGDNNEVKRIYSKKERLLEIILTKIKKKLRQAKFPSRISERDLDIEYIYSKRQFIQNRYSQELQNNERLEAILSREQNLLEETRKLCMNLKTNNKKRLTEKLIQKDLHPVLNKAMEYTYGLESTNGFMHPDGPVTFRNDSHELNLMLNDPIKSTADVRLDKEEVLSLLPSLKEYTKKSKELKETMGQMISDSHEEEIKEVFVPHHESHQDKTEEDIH
T1 sequence (P38313 whole entry, chain 2 of 4): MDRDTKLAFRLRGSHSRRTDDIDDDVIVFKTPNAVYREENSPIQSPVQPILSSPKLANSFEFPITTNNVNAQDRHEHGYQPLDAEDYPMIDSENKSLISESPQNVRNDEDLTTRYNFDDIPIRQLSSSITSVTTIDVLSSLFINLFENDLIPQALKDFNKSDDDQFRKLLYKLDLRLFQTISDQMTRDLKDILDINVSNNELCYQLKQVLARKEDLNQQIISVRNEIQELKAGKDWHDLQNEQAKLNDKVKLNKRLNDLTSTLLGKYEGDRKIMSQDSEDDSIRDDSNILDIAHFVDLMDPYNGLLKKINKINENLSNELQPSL
T1 sequence (Q02732 whole entry, chain 3 of 4): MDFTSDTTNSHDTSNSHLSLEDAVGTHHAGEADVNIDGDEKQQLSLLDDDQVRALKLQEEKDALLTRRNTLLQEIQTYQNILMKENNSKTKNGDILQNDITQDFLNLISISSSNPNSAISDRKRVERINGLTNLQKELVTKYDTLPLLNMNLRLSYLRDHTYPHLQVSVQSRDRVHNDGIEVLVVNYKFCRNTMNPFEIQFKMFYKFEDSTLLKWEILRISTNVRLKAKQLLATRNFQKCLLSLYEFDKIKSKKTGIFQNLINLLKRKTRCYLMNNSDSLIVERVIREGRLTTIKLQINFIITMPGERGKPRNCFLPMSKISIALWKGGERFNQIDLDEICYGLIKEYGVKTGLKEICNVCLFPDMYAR
T1 sequence (Q06675 whole entry, chain 4 of 4): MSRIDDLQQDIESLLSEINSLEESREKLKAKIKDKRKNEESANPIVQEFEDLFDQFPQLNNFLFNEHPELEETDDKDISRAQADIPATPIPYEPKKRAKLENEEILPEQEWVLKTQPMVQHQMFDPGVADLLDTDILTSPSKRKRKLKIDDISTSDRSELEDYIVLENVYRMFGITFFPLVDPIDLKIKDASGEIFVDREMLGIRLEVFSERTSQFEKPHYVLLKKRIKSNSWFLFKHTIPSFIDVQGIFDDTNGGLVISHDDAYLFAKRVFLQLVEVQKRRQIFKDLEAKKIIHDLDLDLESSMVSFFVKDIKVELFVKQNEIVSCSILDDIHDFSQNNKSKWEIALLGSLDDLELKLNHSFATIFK
The assay is described as follows: pull-down; GST fusion proteins incubated with purified COMA in 50 mM HEPES-NaOH pH 7.4, 150 mM NaCl, 5% glycerol, 0.05% Igepal, 2 mM DTT, 0.5 mM EDTA, 20 min at 4°C, then 1 h on GST-Trap Agarose at 4°C, three washes; Coomassie blue staining, anti-His western blot and mass spectrometry. The settings on record: both partners purified. (In general: A western blot detects proteins with antibodies after separation by electrophoresis.)

B1: GST-Sli15 (1-401 aa) (domain or fragment, budding yeast (S. cerevisiae), UniProt P38283 1-401, looked up)
chain: MDWAIKAARKKTQRKPGSTRSIIETLDDLNNLTTDAHSEINQRLYESSEWLRNNVYMNTLKYEDKKMEESLISPENTHNKMDVEFPKMKGEYELSNSQNDAAKDVTKTPRNGLHNDKSITPKSLRRKEVTEGMNRFSIHDTNKSPVEPLNSVKVDANESEKSSPWSPYKVEKVLRESSKTSESPINTKRFDNQTWAAKEEMENEPILQALKKAESVKVKPPPNSGIARSQRRSNMFVPLPNKDPLIIQHIPPTKSSGSIPKVRTVKESPIAFKKKSTINSPAIRAVENSDTAGSTKASSVFDRLSSIPTKSFENKISRGNVGHKYSSSSIDLTGSPMKKVSQKFKSINSTDTDMQEALRDIFSVKNKITKNNSPKGKNSRKSSIPRFDKTSLKLTTHKKLA
notes: Printed size 72 kDa; source: E. coli RosettaGami2, purified (GSTrap FF, Superdex 200)
Regarding B1, the binding result is listed as “binds”.

B2: GST-Sli15 (393-698 aa) (domain or fragment, budding yeast (S. cerevisiae), UniProt P38283 393-698, looked up)
chain: KLTTHKKLAIIAEQKKKSKHSSDVHKTGSRPHSISPTKISVDSSSPSKEVKNYYQSPVRGYLRPTKASISPNKNKNLTTSQTPHRLKIKEKTLRKLSPNIADISKPESRKSKNYRLTNLQLLPPAEAERDDLKKKFDKRLSGIMRSQQEHHRRKQEKQKRMSHLEQDLKKQTSFSNDYKDIRLKESLAPFDNHVRDTINKNTAFSTDNILATINTVDHREIIGNVTPKIASVNDSLPEINTDSEDEASVTLAAWAKSPYLQEQLIRQQDINPQTIFGPIPPLHTDEIFPNPRLNRLKPRQIVPKRS
notes: Sli15 (yeast INCENP), budding yeast, residues 393-698; Printed size 60 kDa; also called pGEX6P-1-GST-SLI15 (393-698); source: E. coli RosettaGami2, purified (GSTrap FF, Superdex 200)
As to B2, the binding result is “binds”.
